{"source": "the nanobody polyreactivity screen of Harvey et al. (2022)", "data": [{"assay": "yeast display, Sf9 membrane polyspecificity reagent, FACS + sequencing; frameworks hold sequencing errors", "summary_of_the_method": "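Synthetic nanobody libraries on Saccharomyces cerevisiae BJ5465 were galactose-induced for 36–48 hours, stained 1 hour at 4 °C with 10% biotinylated, detergent-solubilized Sf9 membrane reagent and enriched on streptavidin microbeads. FACS then separated cells into low and high (top ~1%) gates by anti-HA (expression) and streptavidin (reagent binding) fluorescence. Genes were colony-PCR amplified, MiSeq 2 × 250 sequenced and CDR-length filtered. A clone's polyreactivity label is that of its gate of origin.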", "values": [{"sequence": "QVQLVESGGGLVQAGGSLRLSCAASGFIFRRYVMGWYRQAPGKERELVAAISYGGGSTYYADSVKGRFTISRDNAKITVYLQMNSLKPEDTAVYYCAKLYYRHLYEYDYWGQGTQVTVSS", "polyreactivity (PSR sort gate)": "high polyreactivity"}, {"sequence": "QVQLVESGGGLVQAGGSLRLSCAASGFIFRSNAMGWYRQAPGKERELVAAITRGDSTNYADSVKGRFTITRDNAKNTDYLQKNSLKPEDTAVYYCAAGRSYHSGVHHYRKRNYWGQGTQVTVSS", "polyreactivity (PSR sort gate)": "high polyreactivity"}, {"sequence": "QVQLVESGGGLVQAGGSLRLSCAASGFIFRSNTMGWYRQAPGKERELVAAITWSGGNTYYADSVKGRFTISRDNAKNTVYLQMNSLKPEDTAVYYCATVTRLYRHGYWGQGTQVTVSS", "polyreactivity (PSR sort gate)": "high polyreactivity"}, {"sequence": "QVQLVESGGGLVQAGGSLRLSCAASGFIFRSYVMGWYRQAPGKEMEFVAVITSSGGRTYYADSVKGRFTISRDNAKNTVYLQMNSLKPEDTAVYYCAATRRYPPRRVWYDYWGQGTQVTVSS", "polyreactivity (PSR sort gate)": "high polyreactivity"}, {"sequence": "QVQLVESGGGLVQAGGSLRLSCAASGFIFRTYAMGWYRQAPGKERELVATITGDGSTNYADSVKGRFTISRDHAKNTVYLQMNSLKPEDTAVYYGSRDDRLAGDYWGQGSQVTVSS", "polyreactivity (PSR sort gate)": "low polyreactivity"}, {"sequence": "QVQLVESGGGLVQAGGSLRLSCAASGFIFRVNAMGWYRQATGKERELVAAISASGGTTYYADSVKGRFTISRDIAKNTVYLQMNSLKPEDTAVYYCNAPSRTRYDYWGQGTQVTVSS", "polyreactivity (PSR sort gate)": "low polyreactivity"}, {"sequence": "QVQLVESGGGLVQAGGSLRLSCAASGFIFRVYAMGWYRQAPGKERELVAAISSSGSSTFYADSVKGRFTISRDNAKNTVYLQMNSLKPEDTAVYYCNAYVRRIVRSYYWGQGTQVTVSS", "polyreactivity (PSR sort gate)": "high polyreactivity"}, {"sequence": "QVQLVESGGGLVQAGGSLRLSCAASGFIFRWNTMGWYRQAPGKERELVAAISSRGGSTYYADSVKGRFKISRDNAKNTVYLQMNSLKPEDTAVYYCNAVRGDEYWGQGTQVTVSS", "polyreactivity (PSR sort gate)": "high polyreactivity"}, {"sequence": "QVQLVESGGGLVQAGGSLRLSCAASGFIFRWYAMGWYRQAPGKERELVAAISSGATTNYADSVKGRFTISRDNAKNTVYLQMNSLKPEDTAVYYCAAAHSYYGHYYYWGQGTQVTVSS", "polyreactivity (PSR sort gate)": "high polyreactivity"}, {"sequence": "QVQLVESGGGLVQAGGSLRLSCAASGFIFRWYAMGWYRQAPGKERELVATITRGGGSTYYADSVKGRFTISRDNAKNTVYLQMNSLKPEDTAVYYCAKSVTGWRGLWYTPRNYYWGQGTQVTVSS", "polyreactivity (PSR sort gate)": "high polyreactivity"}, {"sequence": "QVQLVESGGGLVQAGGSLRLSCAASGFIFRYNAMGWYRQAPGKERELVARISSGGSTNYADSVKGRFTISRDNAKNTVYLQMNSLIPEDTAVYYCAVKQYWYIWSGYGYDYWGQGTQVTVSS", "polyreactivity (PSR sort gate)": "high polyreactivity"}, {"sequence": "QVQLVESGGGLVQAGGSLRLSCAASGFIFRYYAMGWSRQAPGKERELGAAITISGGSTYYADSVKGRFTISRDNAKNTVKLQMNSLKPEDTAFYYCAADSKFWYLFHGKRYDYWGQGTQGTVSS", "polyreactivity (PSR sort gate)": "high polyreactivity"}, {"sequence": "QVQLVESGGGLVQAGGSLRLSCAASGFIFRYYAMGWYRPAPGKERELVAAISGSGGSTYYADSVKGRFTISRDNAKNTVYLQMNSLKPEDTAVYYCNKVVLYGAHYYYWGQGTQVTVSS", "polyreactivity (PSR sort gate)": "high polyreactivity"}, {"sequence": "QVQLVESGGGLVQAGGSLRLSCAASGFIFRYYAMGWYRQAPGKEREFVASINWNGGSTSYADSVKGRFTISRDNAKNTVYLQMNSLKPEDTAVSYCAADFQYAIHTDMDYWGHGTQVTVSS", "polyreactivity (PSR sort gate)": "high polyreactivity"}, {"sequence": "QVQLVESGGGLVQAGGSLRLSCAASGFIFRYYAMGWYRQAPGKERELVAAISKRGGGTYYADSVKGRFTISRDYAKNTVFLQMNSLKPEDTAVYYCAAGPGRGRSTLGSYYWGQGTQVTVTS", "polyreactivity (PSR sort gate)": "high polyreactivity"}, {"sequence": "QVQLVESGGGLVQAGGSLRLSCAASGFIFRYYAMGWYRQAPGKERELVAAISWRGGSTYYADSVKGRFTISRDNAKNTVYLQMNSLKPEDTAVYYCAAERYVDYGYWGQGTQVTVSS", "polyreactivity (PSR sort gate)": "high polyreactivity"}]}]}
